{
  "source": "paper PMC4122463",
  "about": "“Application of Two Newly Identified and Characterized Feruloyl Esterases from Streptomyces sp. in the Enzymatic Production of Ferulic Acid from Agricultural Biomass” (PLoS ONE, 2014)",
  "type_in_all_cases": "biochemical, Streptomyces cinnamoneus",
  "key": {"[1]": {"substrate": "CCOC(=O)/C=C/c1ccc(O)c(OC)c1", "assay": "HPLC of released phenolic acid", "details": "50 mM Tris maleate, 50 °C, 30 min", "text": "(§1) HPLC of released phenolic acid on R18"}, "[2]": {"substrate": "COC(=O)/C=C/c1ccc(O)cc1", "assay": "HPLC of released phenolic acid", "details": "50 mM Tris maleate, 50 °C, 30 min", "text": "as §1"}, "[3]": {"substrate": "COC(=O)/C=C/c1cc(OC)c(O)c(OC)c1", "assay": "HPLC of released phenolic acid", "details": "50 mM Tris maleate, 50 °C, 30 min", "text": "as §1"}, "[4]": {"substrate": "COC(=O)/C=C/c1ccc(O)c(OC)c1", "assay": "HPLC of released phenolic acid", "details": "50 mM Tris maleate, 50 °C, 30 min", "text": "as §1"}, "[5]": {"substrate": "COC(=O)/C=C/c1ccc(O)c(O)c1", "assay": "HPLC of released phenolic acid", "details": "50 mM Tris maleate, 50 °C, 30 min", "text": "as §1"}, "[6]": {"substrate": "CCOC(=O)/C=C/c1ccc(O)c(OC)c1", "assay": "HPLC of released phenolic acid", "details": "50 mM Tris maleate, 40 °C, 30 min", "text": "(§2) HPLC of released phenolic acid on R43"}, "[7]": {"substrate": "COC(=O)/C=C/c1ccc(O)cc1", "assay": "HPLC of released phenolic acid", "details": "50 mM Tris maleate, 40 °C, 30 min", "text": "as §2"}, "[8]": {"substrate": "COC(=O)/C=C/c1cc(OC)c(O)c(OC)c1", "assay": "HPLC of released phenolic acid", "details": "50 mM Tris maleate, 40 °C, 30 min", "text": "as §2"}, "[9]": {"substrate": "COC(=O)/C=C/c1ccc(O)c(OC)c1", "assay": "HPLC of released phenolic acid", "details": "50 mM Tris maleate, 40 °C, 30 min", "text": "as §2"}, "[10]": {"substrate": "COC(=O)/C=C/c1ccc(O)c(O)c1", "assay": "HPLC of released phenolic acid", "details": "50 mM Tris maleate, 40 °C, 30 min", "text": "as §2"}, "purified protein": {"substrate": "CCCC(=O)Oc1ccc([N+](=O)[O-])cc1", "assay": "purified protein", "details": "general esterase assay"}},
  "data": [
    {"protein": "R18 (Streptomyces cinnamoneus) (protein, secreted from Streptomyces expression host (pTONA vector), signal peptide removed; mature N-terminus at residue 42 of 383; about 38 kDa; monomer; powdered enzyme) ATAGQEVPAPATRIPLGTKTLHLVDASRQDPWKPSAGNRELMVTLWYPSLPSREPAAPYVSKPLSRAVLGNDVLAGVRTHAVAGARPAPVPRPLVVLSPGFGMSRITLTALGEDLASRGYAVAAVDHTYEAPVEFPGGRIEKCTLCDDSRMDPGAVVRNRAKDLRFVLDRLTGPGSELRVDARRIGVAGHSIGGASAVEVMREDRRVDAAINLDGNFFTEPPAEGLNKPVLLLGARRSGLPEPQENWERAWKQLTGWKRWLDVPAGGHMTFTDVPWIVDRFGMPGQIPPEQVEGQLGTVSAARATAVTRNYVAAFFDRHLRGRPSPLLDRPSSAHPEVTFMK", "values": [
      {"measurement": "Km", "setting": "[1]", "result": "4.28 ± 0.36", "unit": "mM"},
      {"measurement": "Vmax", "setting": "[1]", "result": 0.0406, "unit": "µmol/min/mg"},
      {"measurement": "Km", "setting": "[2]", "result": "4.31 ± 0.26", "unit": "mM"},
      {"measurement": "Vmax", "setting": "[2]", "result": 0.0262, "unit": "µmol/min/mg"},
      {"measurement": "Km", "setting": "[3]", "result": "9.39 ± 1.43", "unit": "mM"},
      {"measurement": "Vmax", "setting": "[3]", "result": 0.0367, "unit": "µmol/min/mg"},
      {"measurement": "Km", "setting": "[4]", "result": "4.99 ± 1.72", "unit": "mM"},
      {"measurement": "Vmax", "setting": "[4]", "result": 0.0523, "unit": "µmol/min/mg"},
      {"measurement": "Km", "setting": "[5]", "result": "3.31 ± 0.31", "unit": "mM"},
      {"measurement": "Vmax", "setting": "[5]", "result": 0.00752, "unit": "µmol/min/mg"}
    ]},
    {"protein": "R43 (Streptomyces cinnamoneus) (protein, full length, no signal peptide, secreted from Streptomyces expression host (pTONA vector); 498 aa; about 52 kDa; N-terminus at residue 1; monomer; powdered enzyme) MEIRTAQGIVRGELTAGGLAVFRGVPYARPPVGNLRFAAPQPPLPWDGVRDALAFGPPPPQSGPARVPGDPAGTDWLTLNVWTPDPGGSGLPVLVWIPGGAYVSGAAGDPLYDAALLAGQGGLVVVTLNYRLGAEGFAHLPGVPDNRGLLDQLAALDWVRQNIARFGGNPDRVTLCGQSAGAGSIATLLAAPRAAGLFRRAITQSVPGLYATCALAADVTADLAARLGTTPTTAGLAAVSPQRLADAIDPLMEELPARIDRWGRLARSGVPFLPVVDGDVVPDVPWRSLRDGRASETDLLTGHTRDEFRPFLMLSGHPEKITDEDATAALRALAPAPDGERAYRAAHPDASPAALFELLYSDVLFRMPSLHLADAHSAGGGTAHLYELCLSAPALGGALGAAHGLDVSLLFGTYSAPAARLFYGEEPPPEDVLALGDDIRRSWASFAAHGDPGWPAYRVTDGRLTGLLDTGTGAGPYPEDASRRIWEGHGVEPFDLV", "values": [
      {"measurement": "Km", "setting": "[6]", "result": "1.96 ± 0.14", "unit": "mM"},
      {"measurement": "Vmax", "setting": "[6]", "result": 0.0153, "unit": "µmol/min/mg"},
      {"measurement": "Km", "setting": "[7]", "result": "3.00 ± 0.26", "unit": "mM"},
      {"measurement": "Vmax", "setting": "[7]", "result": 0.00817, "unit": "µmol/min/mg"},
      {"measurement": "Km", "setting": "[8]", "result": "0.54 ± 0.07", "unit": "mM"},
      {"measurement": "Vmax", "setting": "[8]", "result": 0.00104, "unit": "µmol/min/mg"},
      {"measurement": "Km", "setting": "[9]", "result": "4.41 ± 0.36", "unit": "mM"},
      {"measurement": "Vmax", "setting": "[9]", "result": 0.042, "unit": "µmol/min/mg"},
      {"measurement": "Km", "setting": "[10]", "result": "2.61 ± 0.25", "unit": "mM"},
      {"measurement": "Vmax", "setting": "[10]", "result": 0.0021, "unit": "µmol/min/mg"},
      {"measurement": "Km", "setting": "purified protein", "result": "0.17 ± 0.05", "unit": "mM"},
      {"measurement": "Vmax", "setting": "purified protein", "result": 0.00056, "unit": "µmol/min/mg"}
    ]}
  ]
}
